The source of these data is PMC4470572 (Nature communications, 2014).

The series deals with the molecule itself. Nature of the series: single-molecule photobleaching step analysis.

B1: DIC1-eGFP-3xFLAG (dynein intermediate chain 1) (natural protein, mouse, UniProt O88485 1-628, looked up)
chain: MSDKSDLKAELERKKQRLAQIREEKKRKEEERKKKEADMQQKKEPVQDDSDLDRKRRETEALLQSIGISPEPPLVPTPMSPSSKSVSTPSDAGSQDSGDLGPLTRTLQWDTDPSVLQLQSDSELGRRLHKLGVSKVTQVDFLPREVVSYSKETQTPLATHQSEEDEEDEEMVEPKIGHDSELENQEKKQETKEAPPRELTEEEKQQILHSEEFLIFFDRTIRVIERALAEDSDIFFDYSGRELEEKDGDVQAGANLSFNRQFYDEHWSKHRVVTCMDWSLQYPELMVASYSNNEDAPHEPDGVALVWNMKFKKTTPEYVFHCQSSVMSVCFARFHPNLVVGGTYSGQIVLWDNRSHRRTPVQRTPLSAAAHTHPVYCVNVVGTQNAHNLITVSTDGKMCSWSLDMLSTPQESMELVYNKSKPVAVTGMAFPTGDVNNFVVGSEEGTVYTACRHGSKAGIGEVFEGHQGPVTGINCHMAVGPIDFSHLFVTSSFDWTVKLWTTKHNKPLYSFEDNADYVYDVMWSPVHPALFACVDGMGRLDLWNLNSDTEVPTASVAIEGASALNRVRWAQGGKEVAVGDSEGRIWIYDVGELAVPHNDEWTRFARTLVEIRANRADSEEEGAVELAA
In the case of B1, the “stoichiometry N” value is 2.
